In paper PMC5694763:

Target: dCas9 (SpCas9 D10A/H840A) D10A;H840A (Streptococcus pyogenes) (UniProt Q99ZW2)
Test: SPR
Conditions: SPR: PBS, 0.005% Tween-20, 25 C, BLI: PBS, 0.005% Tween-20, 1 mM MgCl2, 50 ug/ml heparin, SwitchSENSE: 20 mM Tris pH 7.4, 100 mM KCl, 5 mM MgCl2, 0.01% …

| Substance | Kd (DNA with 7 RNA residues (1,15,16,19,22,23,24)) | Kd (dCas9 immobilised, 1.2-100 nM titration) | Kd (dCas9 immobilised, kinetic 1:1 fit) |
| --- | --- | --- | --- |
| AGCACTGCACGCCGUAGGUCGUUUTAGAGCTATGCTGTTTTG [GFP cr1 crHyb with tracrRNA] | < 1 nM | – | – |
| tracrRNA (88 nt) | – | 6.2 nM | 0.308 nM |
